{"source": "paper doi:10.1101/2024.08.08.607148", "about": "(bioRxiv, 2024)", "binders": {"B1": {"name": "D1D2.v-IgG (LILRB1 D1D2.v-containing antibody on the MDB1 scaffold) (antibody, V domains shown)", "VH": "QITLKESGPTLVERTQTLTLTCTFSGFSLTTDGLGVGWIRQPPGKALEWLALIYYDDVRRYRPSLKSRLTITKDTSKNRVVLTVTDMDPVDAGTYFCVHASLFNLGSRNVYFRYWGQGTLVSVSS", "VL": "SYDLTQPPSVSVSPGQTARITCSGDSLARQFASWYQQKPGQSPVLLIYKNIERLSAIPERFSGSTSGTSVTLTISGVQAEDEADYFCQSADDSGSYSLFGTGTRVSVL"}, "B2": {"name": "variable region of RIFIN#1 (PF3D7_1254800, 165-274 aa) (domain or fragment, P. falciparum, UniProt Q8I4N9 165-274, looked up)", "chain": "NYETINAFIAKTIEELEGIPGITKLFGAKISQFVTPAVFRKPMSLVETILSEKKKLCLCAANKNELLCRGMNPNVPETLPKKIEVAVNEVLSSVNDTWATATTPTTFFTN"}}, "test_in_all_cases": "ELISA", "key": {"[1]": {"target": "T1, variable region of RIFIN#1 (PF3D7_1254800, 165-274 aa) (P. falciparum, UniProt Q8I4N9)"}, "[2]": {"target": "T1, variable region of RIFIN#1 …", "remark": "listed apart in the source"}, "[3]": {"target": "extracellular domain (ECD) of human LILRB1 (human, UniProt Q8NHL6 24-461, biotin (NHS-pEG12-biotin) in the competition ELISA)", "sequence (Q8NHL6 24-461)": "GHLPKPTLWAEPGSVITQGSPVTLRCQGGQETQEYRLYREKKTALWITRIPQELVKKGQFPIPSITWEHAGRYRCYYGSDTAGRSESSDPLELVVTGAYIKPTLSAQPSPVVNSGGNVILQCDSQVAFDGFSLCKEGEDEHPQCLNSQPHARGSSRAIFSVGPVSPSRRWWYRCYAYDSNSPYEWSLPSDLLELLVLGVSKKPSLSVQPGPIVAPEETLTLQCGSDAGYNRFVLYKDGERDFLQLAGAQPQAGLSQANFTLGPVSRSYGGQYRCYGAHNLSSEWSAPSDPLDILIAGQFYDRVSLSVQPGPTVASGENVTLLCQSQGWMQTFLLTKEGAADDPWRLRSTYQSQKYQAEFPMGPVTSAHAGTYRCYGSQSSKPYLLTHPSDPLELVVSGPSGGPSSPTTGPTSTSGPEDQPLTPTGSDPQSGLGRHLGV"}}}
{"binder": "B1", "values": [{"measurement": "Kd", "setting": "[1]", "result": 6, "unit": "nM"}, {"measurement": "IC50", "setting": "[2]", "result": 20, "unit": "nM"}]}
{"binder": "B2", "values": [{"measurement": "Kd", "setting": "[3]", "result": "~650", "unit": "nM"}]}
